Several values for one entry are separate records, joined by “and”; a condition that tells them apart may be missing. Identical values can stand only once.
Columns and labels:
[1] = target: ECF module (EcfA_K122C, EcfA', EcfT) of the C-sensor, cysteine-less background, fluorophore-labelled (Lactobacillus delbrueckii); test: FRET or BRET; single-molecule FRET, TIRF; labelled complex reconstituted in liposomes (E. coli polar lipids:PC:DOPE-biotin, protein to lipid 1:10.000) immobilised by biotin-neutravidin; 50 mM KPi pH 7.5, 150 mM NaCl; apo, also with Mg-AMP-PNP, Mg-ADP or 10 µM vitamin B12 alone; 90 s recordings, 200 ms frames
[2] = target: ECF module (EcfA_K122C, EcfA', EcfT) of the C-sensor, cysteine-less background, fluorophore-labelled (Lactobacillus delbrueckii); test: FRET or BRET; single-molecule FRET, TIRF; labelled complex in immobilised liposomes (protein to lipid 1:10.000) with 10 mM Mg-ATP outside (or on both sides), with or without 10 µM vitamin B12 in the lumen; 50 mM KPi pH 7.5, 150 mM NaCl; 90 s recordings, 200 ms frames

percent of recorded traces with a dissociation (apo and AMP-PNP conditions) [1]: 1%
half-life to the first dissociation event after ATP addition (ATPout + B12in) [2]: 7 s
half-life to the first dissociation event after ATP addition (ATPout) [2]: 10 s
mean dwell time of the associated state (10 mM Mg-ATP outside; with or without vitamin B12, not told which) [2]: 7.9 s and 8.7 s
mean dwell time of the dissociated state (10 mM Mg-ATP outside, with and without vitamin B12) [2]: 20 s
percent of dynamic traces (association/dissociation transitions), 10 mM Mg-ATP outside [2]: 22.1%
percent of dynamic traces (association/dissociation transitions), ATP outside and 10 µM vitamin B12 in the lumen [2]: 18.7%
percent of dynamic traces (association/dissociation transitions), Mg-ATP on both sides of the membrane [2]: 13.2%
percent of traces static at the low-FRET value 0.08 (dissociated), 10 mM Mg-ATP outside [2]: 19.6%
Substance: CbrT_A182C (S-component of the C-sensor, cysteine-less background, fluorophore-labelled) (natural protein)

From paper PMC12075633
